Experimental data reported in patent US20140031294A1 (NOVOZYMES BIOPHARMA UK, published 2014).

Molecular target: transferrin receptor on human erythroleukemic K562 cells (human, UniProt P02786 1-760)
Assay: cell-based or functional assay

Chain of transferrin receptor on human erythroleukemic K562 cells (P02786 whole entry): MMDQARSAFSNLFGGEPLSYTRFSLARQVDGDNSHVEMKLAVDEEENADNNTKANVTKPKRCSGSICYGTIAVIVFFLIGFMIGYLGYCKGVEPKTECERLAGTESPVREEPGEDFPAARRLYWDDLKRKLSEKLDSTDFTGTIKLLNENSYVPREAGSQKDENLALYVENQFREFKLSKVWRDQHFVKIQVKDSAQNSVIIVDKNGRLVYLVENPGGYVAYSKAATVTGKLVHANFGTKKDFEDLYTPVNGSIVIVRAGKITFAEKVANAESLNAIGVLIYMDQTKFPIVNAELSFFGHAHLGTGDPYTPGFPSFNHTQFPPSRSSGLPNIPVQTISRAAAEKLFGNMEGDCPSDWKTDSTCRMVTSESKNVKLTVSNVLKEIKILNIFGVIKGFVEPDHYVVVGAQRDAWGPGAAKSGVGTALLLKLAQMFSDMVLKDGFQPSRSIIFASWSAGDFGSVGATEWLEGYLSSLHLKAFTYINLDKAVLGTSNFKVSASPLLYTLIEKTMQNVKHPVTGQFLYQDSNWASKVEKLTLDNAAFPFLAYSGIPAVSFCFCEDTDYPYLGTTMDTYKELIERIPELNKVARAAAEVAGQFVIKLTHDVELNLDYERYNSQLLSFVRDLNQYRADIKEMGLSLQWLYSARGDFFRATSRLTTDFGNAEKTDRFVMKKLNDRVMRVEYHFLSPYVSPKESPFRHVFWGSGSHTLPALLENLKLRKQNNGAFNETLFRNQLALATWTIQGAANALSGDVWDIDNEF

Apparent Affinity (competition against 55Fe uptake from labelled plasma transferrin by K562 cells): 123 nM
B1: recombinant transferrin (N413Q, N611Q) (ligand)
chain: VPDKTVRWCAVSEHEATKCQSFRDHMKSVIPSDGPSVACVKKASYLDCIRAIAANEADAVTLDAGLVYDAYLAPNNLKPVVAEFYGSKEDPQTFYYAVAVVKKDSGFQMNQLRGKKSCHTGLGRSAGWNIPIGLLYCDLPEPRKPLEKAVANFFSGSCAPCADGTDFPQLCQLCPGCGCSTLNQYFGYSGAFKCLKDGAGDVAFVKHSTIFENLANKADRDQYELLCLDNTRKPVDEYKDCHLAQVPSHTVVARSMGGKEDLIWELLNQAQEHFGKDKSKEFQLFSSPHGKDLLFKDSAHGFLKVPPRMDAKMYLGYEYVTAIRNLREGTCPEAPTDECKPVKWCALSHHERLKCDEWSVNSVGKIECVSAETTEDCIAKIMNGEADAMSLDGGFVYIAGKCGLVPVLAENYQKSDNCEDTPEAGYFAVAVVKKSASDLTWDNLKGKKSCHTAVGRTAGWNIPMGLLYNKINHCRFDEFFSEGCAPGSKKDSSLCKLCMGSGLNLCEPNNKEGYYGYTGAFRCLVEKGDVAFVKHQTVPQNTGGKNPDPWAKNLNEKDYELLCLDGTRKPVEEYANCHLARAPNHAVVTRKDKEACVHKILRQQQHLFGSQVTDCSGNFCLFRSETKDLLFRDDTVCLAKLHDRNTYEKYLGEEYVKAVGNLRKCSTSSLLEACTFRRP
